In assay [1] the target is human MSR1 extracellular domain expressed with a N-terminal nonahistidine tag (His9-hMSR1; R&D Systems, Cat #2708-MS) (human) (UniProt P21757). Briefly: competition ELISA; 300 nM antibody, competitor biot-AGE-BSA, plate-coated His9-hMSR1. A general note: ELISA stands for enzyme-linked immunosorbent assay.
Assay [2] deals with mouse MSR1 on RAW264.7 cells (mouse) (UniProt P30204). Briefly: flow cytometry, RAW264.7 cells, 10 ug/mL. A general note: A flow cytometer gives signals particle by particle.
mouse MSR1 on RAW264.7 cells (mouse), sequence (P30204 whole entry, the tested form may be a part): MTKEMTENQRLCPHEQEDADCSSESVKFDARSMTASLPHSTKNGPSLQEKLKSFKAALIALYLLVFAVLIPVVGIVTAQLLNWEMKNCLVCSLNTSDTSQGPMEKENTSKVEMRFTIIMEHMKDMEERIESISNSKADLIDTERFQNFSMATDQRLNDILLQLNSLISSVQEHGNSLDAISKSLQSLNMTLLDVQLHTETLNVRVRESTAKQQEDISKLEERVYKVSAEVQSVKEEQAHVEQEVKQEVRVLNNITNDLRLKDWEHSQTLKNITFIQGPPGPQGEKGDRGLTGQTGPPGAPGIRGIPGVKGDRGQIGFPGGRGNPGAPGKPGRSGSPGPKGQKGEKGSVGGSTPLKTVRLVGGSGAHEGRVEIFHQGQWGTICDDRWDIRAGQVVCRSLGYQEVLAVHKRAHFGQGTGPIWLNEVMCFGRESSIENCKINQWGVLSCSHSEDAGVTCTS
Assay [3] deals with human MSR1 extracellular domain expressed with a N-terminal nonahistidine tag (His9-hMSR1; R&D Systems, Cat #2708-MS) (human) (UniProt P21757). In words: competition ELISA; 1 µM antibody, competitor 10 nM Ox-LDL, plate-coated His9-hMSR1.
Assay [4] has as its target full length monkey MSR1 on HEK293.mfMSR1 cells (Macaca fascicularis). In words: ECL cell binding, HEK293.mfMSR1 cells.
The target of assay [5] is endogenously expressed human MSR1 on PMA-treated THP-1 cells (human) (UniProt P21757). Briefly: ECL cell binding, PMA-treated THP-1 cells.
endogenously expressed human MSR1 on PMA-treated THP-1 cells (human), sequence (P21757 whole entry, the tested form may be a part): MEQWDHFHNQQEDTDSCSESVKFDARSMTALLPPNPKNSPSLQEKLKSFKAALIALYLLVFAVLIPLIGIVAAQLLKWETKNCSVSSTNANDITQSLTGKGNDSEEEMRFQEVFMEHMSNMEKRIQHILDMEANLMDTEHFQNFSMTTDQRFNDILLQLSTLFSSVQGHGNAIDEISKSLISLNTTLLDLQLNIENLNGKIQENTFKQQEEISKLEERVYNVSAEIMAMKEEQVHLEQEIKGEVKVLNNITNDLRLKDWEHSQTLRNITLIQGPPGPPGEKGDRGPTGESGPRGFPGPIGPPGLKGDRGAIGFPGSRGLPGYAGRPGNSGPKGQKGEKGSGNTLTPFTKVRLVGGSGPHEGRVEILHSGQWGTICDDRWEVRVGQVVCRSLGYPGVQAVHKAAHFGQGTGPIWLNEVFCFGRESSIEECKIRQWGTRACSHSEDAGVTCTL
Assay [6] concerns the target human MSR1 extracellular domain expressed with a N-terminal nonahistidine tag (His9-hMSR1; R&D Systems, Cat #2708-MS) (human) (UniProt P21757). Briefly: competition ELISA; 100 nM antibody, competitor Ac-LDL, plate-coated His9-hMSR1.
The target of assay [7] is full length human MSR1 with a C-terminal Myc tag on HEK293.Myc.hMSR1 cells (human) (UniProt P21757). Briefly: ECL cell binding, HEK293.Myc.hMSR1 cells.
full length human MSR1 with a C-terminal Myc tag on HEK293.Myc.hMSR1 cells (human), sequence (P21757 whole entry, the tested form may be a part): as above
For assay [8], the target named is human MSR1 extracellular domain expressed with a N-terminal nonahistidine tag (His9-hMSR1; R&D Systems, Cat #2708-MS) (human) (UniProt P21757). In words: competition ELISA; 500 nM antibody, competitor 5 nM Ox-LDL, plate-coated His9-hMSR1.

human MSR1 extracellular domain expressed with a N-terminal nonahistidine tag (His9-hMSR1; R&D Systems, Cat #2708-MS) (human), sequence (P21757 other isoform, or with tags, fused parts or gaps): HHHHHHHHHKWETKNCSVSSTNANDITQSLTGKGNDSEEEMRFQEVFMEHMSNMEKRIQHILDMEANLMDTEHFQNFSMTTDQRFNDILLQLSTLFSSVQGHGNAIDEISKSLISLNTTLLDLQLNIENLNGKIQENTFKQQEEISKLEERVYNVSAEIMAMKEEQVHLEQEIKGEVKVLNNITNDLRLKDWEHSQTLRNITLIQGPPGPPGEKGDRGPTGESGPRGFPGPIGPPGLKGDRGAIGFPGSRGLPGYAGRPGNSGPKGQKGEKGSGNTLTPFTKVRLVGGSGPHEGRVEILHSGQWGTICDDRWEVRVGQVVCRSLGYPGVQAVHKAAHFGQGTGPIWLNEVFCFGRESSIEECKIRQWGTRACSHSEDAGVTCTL
full length monkey MSR1 on HEK293.mfMSR1 cells (Macaca fascicularis), sequence (chain, as listed by the source): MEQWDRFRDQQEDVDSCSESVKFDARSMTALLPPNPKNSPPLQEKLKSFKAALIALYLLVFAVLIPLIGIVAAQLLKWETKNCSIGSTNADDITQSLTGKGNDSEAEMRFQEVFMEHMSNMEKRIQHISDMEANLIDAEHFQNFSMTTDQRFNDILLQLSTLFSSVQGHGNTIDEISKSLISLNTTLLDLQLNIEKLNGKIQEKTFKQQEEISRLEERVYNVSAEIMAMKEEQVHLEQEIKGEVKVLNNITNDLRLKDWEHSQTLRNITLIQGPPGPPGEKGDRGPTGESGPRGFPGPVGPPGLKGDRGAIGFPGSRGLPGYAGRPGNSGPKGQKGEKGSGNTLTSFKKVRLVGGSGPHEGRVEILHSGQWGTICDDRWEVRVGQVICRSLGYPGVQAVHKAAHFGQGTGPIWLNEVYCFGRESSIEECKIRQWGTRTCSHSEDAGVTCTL

B1: H1H27754P-N297Q (antibody, human IgG1, V domains shown)
VH: EVQLVESGGGLVQPGGSLRLSCAASGFTFRTYAMTWVRQAPGKGLDWVSAITGDGGNTYYADSVKGRFTISRDNSKNTLYLQMNSLRAEDTAIYYCAKDQRFSFALYYFDYWGQGTLVTVSS
VL: DIQMTQSPSSVSASVGDRVTITCRASQGISSWLAWYQQKPGNAPKLLIYAAFSLQSGVPSRFSGSGSGTDFTLTISSLQPEDFATYYCQQANNFPWTFGQGTKVEIKR
Take B1: the % Blocking in assay [1] was -9%; in assay [3] it was -44%; in assay [6], -42%. Moreover, the MFI in assay [2] was 5410. This molecule also registered a S/N in assay [2] of 1. Besides, the ratio of 11 nM antibody binding signal (RLU) to isotype control is 53 in assay [4], 66 in assay [5] and 55 in assay [7].

B2: H2aM21229N (antibody, mouse IgG2a, V domains shown)
VH: EVQLVESGGGLVKPGGSLRLSCAASGFTFSRYSMNWVRQAPGKGLEWVSSISSSSSYIYYGDTVKGRFTISRDNAKKSLYLQMNSLRAEDTAVYYCVRDRGQLVLYFDYWGQGTLVTVSS
VL: DIQMTQSPASLSTSIRDRVTITCRASLSISSFLNWFQQRPGKAPKLLIYVASNLQSGVPSRFSDSGSGTDFTLTISSLQPEDFATYYCQQNYSTPPITFGQGTRLEIK
On to B2, for which the figures for the % Blocking in assay [8], in assay [1] and in assay [6] were 38%, 3% and -11%, respectively. For the same molecule, the ratio of 11 nM antibody binding signal (RLU) to isotype control in assay [5] was 56; in assay [7] it was 78.

Values taken from patent US20230285581A1.
